{"source": "patent US20250009780A1", "about": "“AGENTS ENCODING CLDN6 AND CD3 BINDING ELEMENTS FOR TREATING CLDN6-POSITIVE CANCERS” (BIONTECH SE, priority 2021, published 2025)", "key": {"MDA-MB-231 cell line": {"test_system": "MDA-MB-231 cell line", "assay": "T-cell-mediated cytotoxicity assay (bioluminescence), MDA-MB-231", "type": "cell-based, human", "conditions": "CLDN6-negative MDA-MB-231; RiboMab02.1-containing mouse serum", "method": "Human PBMCs from eight healthy donors were co-cultured with luciferase-expressing tumor cells. CLDN6-positive PA-1 (A) or OV-90 (B) cell lines were used as target cells and the CLDN6-negative MDA-MB-231 (A, B) cell line to control for target specificity. The assays were performed in a 384-well plate format with an effector-to-target-cell ratio of 20:1. Bioluminescence of viable tumor cells was measured as readout. Specific lysis percentages of tumor cell killing are presented. RiboMab02.1-containing mouse serum was serially-diluted (10-fold, 10-point; range: 5.0×10^−7 to 500 ng/mL) and added to the co-cultures, followed by incubation for (A) 24 h with PA-1 cells or (B) 48 h with OV-90 cells. Each line represents tumor cell lysis with an individual donor's PBMC sample.\nBioluminescence-based cytotoxicity assays were conducted using luciferase-expressing cell lines.\nThe CLDN6-positive human ovarian cancer cell lines PA-1 and OV-90 served to determine target-dependent lysis efficiency while the target-negative human breast cancer cell line MDA-MB-231 was used as negative control to confirm target-specific lysis. Human PBMCs from eight different healthy donors were used as effector cells to reflect the donor-dependent heterogeneity of human T-cell responses. […]"}, "[1]": {"assay": "Single-dose PK study of BNT142 in cynomolgus monkeys"}, "human PBMCs": {"test_system": "human PBMCs", "assay": "In vitro human cytokine release (multiplex ELISA on T-cell activation assay supernatants)", "type": "cell-based", "method": "Cytokine concentration values for each donor (means of technical triplicates) are shown. Filled symbols represent values with target cells while open symbols represent values without target cells.\nCell culture supernatants obtained from the T-cell activation assay were analyzed to investigate the RiboMab02.1-dependent induction of on- and off-target cytokine release. The levels of human pro-inflammatory cytokines IFN-γ, IL-1β, IL-2, IL-6, IL-10 and TNF-α were measured using a customized multiplex ELISA kit."}, "CLDN6": {"biological_target": "T1, CLDN6 (Homo sapiens, UniProt P56747)", "T1 construct": "expressed in transfected cells", "T1 sequence (P56747 1-220)": "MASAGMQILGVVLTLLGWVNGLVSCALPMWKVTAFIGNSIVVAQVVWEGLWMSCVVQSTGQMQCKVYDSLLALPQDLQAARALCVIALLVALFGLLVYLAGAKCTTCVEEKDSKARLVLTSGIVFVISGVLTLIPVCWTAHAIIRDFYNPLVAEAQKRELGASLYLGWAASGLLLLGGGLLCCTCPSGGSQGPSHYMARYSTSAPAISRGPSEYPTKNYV", "assay": "Flow cytometric binding assay, HEK-293T-17 CLDN6 transductants", "conditions": "10 μg/mL RiboMab02.1 in HEK-293T-17 supernatant", "text": "(§1) Cells were first gated for singlets followed by gating for viable lymphocytes (PBMCs) or viable HEK-293T-17 cells. […] Cynomolgus monkey or human PBMCs and HEK-293T-17 transductants stably expressing luciferase (HEK-293T-17_mock), CLDN3, 4, 6 or 9 served as target cells as indicated. The dotted vertical line marks the peak position of unstained populations."}, "human CD3": {"biological_target": "T2, human CD3 (Homo sapiens, UniProt P07766)", "T2 construct": "endogenous in cells; host or cells: human PBMCs (T cells)", "T2 sequence (P07766 23-207)": "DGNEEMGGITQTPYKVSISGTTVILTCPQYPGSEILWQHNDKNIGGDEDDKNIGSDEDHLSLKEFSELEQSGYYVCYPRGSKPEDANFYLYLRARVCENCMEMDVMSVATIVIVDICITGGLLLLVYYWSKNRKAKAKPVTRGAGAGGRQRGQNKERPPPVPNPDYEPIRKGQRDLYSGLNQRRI", "T2 sequence (P04234 22-171 partner)": "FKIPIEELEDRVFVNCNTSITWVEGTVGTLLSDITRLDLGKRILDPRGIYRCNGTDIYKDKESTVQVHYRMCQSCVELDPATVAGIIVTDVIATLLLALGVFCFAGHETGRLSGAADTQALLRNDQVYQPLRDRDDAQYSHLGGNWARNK", "T2 sequence (P09693 23-182 partner)": "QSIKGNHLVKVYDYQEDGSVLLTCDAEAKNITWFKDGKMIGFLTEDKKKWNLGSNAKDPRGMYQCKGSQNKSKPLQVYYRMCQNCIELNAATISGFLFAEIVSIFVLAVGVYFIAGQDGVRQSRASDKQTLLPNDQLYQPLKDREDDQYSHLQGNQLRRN", "T2 sequence (P20963 22-164 partner)": "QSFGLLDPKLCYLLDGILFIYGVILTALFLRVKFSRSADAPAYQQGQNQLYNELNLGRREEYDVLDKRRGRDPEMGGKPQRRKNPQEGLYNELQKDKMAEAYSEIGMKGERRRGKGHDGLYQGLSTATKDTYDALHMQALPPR", "assay": "Flow cytometric binding assay, human PBMCs", "conditions": "10 μg/mL", "text": "as §1"}, "human PBMCs (T cells)": {"test_system": "human PBMCs (T cells)", "assay": "T-cell activation assay (CD69/CD25, flow cytometry)", "type": "cell-based", "method": "Human PBMCs from three healthy donors (effector cells) were cultured in the presence and absence of CLDN6-positive PA-1 cells (target cells) at a 10:1 effector-to-target-cell ratio. RiboMab02.1-containing mouse serum was serially-diluted (10-fold, 10-point; range: 4.0×10^−6 to 4,000 ng/mL) prior to use in the assay. After 48 h of co-incubation, cells were stained with anti-CD5, anti-CD69 and anti-CD25 antibodies for flow cytometric analysis of T cells. Shown here is the total T-cell activation normalized to samples incubated with mock serum from Luc_RNA-LNP-treated mice. Percentages of activated T cells are shown for each individual donor (left) and for all three donors as mean (right). Filled symbols represent values with and black, open symbols without target cells.\nRiboMab02.1-containing as well as mock serum samples were obtained from mice administered either with BNT142 or luciferase encoding RNA-LNP (Luc_RNA-LNP; mock). Human PBMCs from three healthy donors were used as effector cells. Serum samples were serially-diluted (10-fold, 10-point), starting at 4,000 ng/mL, and added to PBMCs cultured alone or together with CLDN6-positive PA-1 target cells at an effector-to-target-cell ratio of 10:1. After 48 h of incubation, T cells were analyzed by flow cytometry for surface expression of the early and late activation markers CD69 and CD25, respectively. […] OKT3 positive control led to >50% T-cell activation with and without target cells (data not shown). Upregulation of CD69 on T cells was higher than that of CD25; CD25-positive cells were almost exclusively CD69 double-positive, pointing to an early activation state (data not shown)."}, "[2]": {"conditions": "0.050 mg/kg, individual animals"}}, "note": "Values joined by “and” are separate entries in the source; they are usually repeats but may differ in a detail not shown here. Identical values can stand only once."}
{"substance": "RiboMab02.1: Fab-(scFv)2-based bispecific antibody (tribody) against CLDN6 and CD3 encoded by BNT142; SEQ ID NOs: 4 and 6; C53S", "values": [{"measurement": "target-independent lysis", "setting": "MDA-MB-231 cell line", "result": "did not induce target-independent (non-specific) lysis"}, {"measurement": "Effective t1/2 (mean)", "setting": "[1]; 0.050 mg/kg, group, n=2", "result": 28.1, "unit": "h"}, {"measurement": "Cmax (mean)", "setting": "[1]; 0.050 mg/kg, group, n=3", "result": 27.5, "unit": "ng/mL"}, {"measurement": "Ctrough (mean)", "setting": "[1]; 0.050 mg/kg, group, n=3", "result": 3.6, "unit": "ng/mL"}, {"measurement": "tlast (median)", "setting": "[1]; 0.050 mg/kg, group, n=3", "result": 72, "unit": "h"}, {"measurement": "Cmax", "setting": "[1]; [2]", "result": "32.8 ng/mL and 19.1 ng/mL and 30.7 ng/mL"}, {"measurement": "Ctrough", "setting": "[1]; [2]", "result": "0.6 ng/mL and 5.6 ng/mL"}, {"measurement": "tlast", "setting": "[1]; [2]", "result": "168 h and 72 h (2×)"}, {"measurement": "Effective t1/2", "setting": "[1]; 0.050 mg/kg, individual animals, from MRT0-inf", "result": 28.1, "unit": "h"}, {"measurement": "Effective t1/2 (mean)", "setting": "[1]; […], group, n=1", "result": 26.5, "unit": "h"}, {"measurement": "Effective t1/2 (mean)", "setting": "[1]; […], group, n=3", "result": 36.6, "unit": "h"}, {"measurement": "Effective t1/2", "setting": "[1]; […], individual animals, calculated from MRT0-inf", "result": 26.5, "unit": "h"}, {"measurement": "inter-individual difference in concentration at Cmax", "setting": "[1]; highest dose group", "result": 2, "unit": "fold"}, {"measurement": "cytokine induction", "setting": "human PBMCs; absence of CLDN6-positive PA-1 target cells", "result": "no cytokine induction was observed"}, {"measurement": "IL-6 induction", "setting": "human PBMCs; absence of target cells, highest concentration of RiboMab02.1", "result": "low induction of IL-6 seen with one donor"}, {"measurement": "release of IFN-γ, IL-1β, IL-2, IL-6, IL-10 and TNF-α", "setting": "human PBMCs; presence of PA-1 target cells, dose- and donor-dependent", "result": "induced the release of all cytokines"}, {"measurement": "binding to CLDN6", "setting": "CLDN6", "result": "bound specifically"}, {"measurement": "binding to human CD3", "setting": "human CD3", "result": "recognized"}, {"measurement": "off-target T-cell activation", "setting": "human PBMCs (T cells); PBMCs without target cells, up to 40 ng/mL RiboMab02.1, 48 h", "result": "No off-target T-cell activation"}, {"measurement": "concentration above EC50 up to which T-cell activation is target-dependent", "setting": "human PBMCs (T cells); onset of unspecific T-cell activation relative to EC50", "result": "> 1,500 fold"}]}
